Test results taken from patent US20020094546A1.
Blank lines part the entries; values can stand above or below the substance they belong to.

Assays:
[1] = target: beta PDGF receptor on HR5βR cells expressing only the beta receptor (UniProt P09619); test: cell-based or functional assay
[2] = target: alpha PDGF receptor on 32D cells expressing only the alpha receptor (UniProt P16234); test: competition of unlabeled PDGF DD with ^125I-PDGF AA on 32D alpha receptor bearing cells
[3] = target: human beta PDGF receptor on human cells that carry both receptors (CCD1070 fibroblasts, MG-63 cells) (human) (UniProt P09619); test: two-site ELISA for alpha-beta PDGF receptor heterodimers: capture with anti-beta PDGF receptor mAb, detection with polyclonal anti-alpha PDGF receptor; MG-63 lysates after PDGF BB 10 ng/mL, 10 min
human beta PDGF receptor on human cells that carry both receptors (CCD1070 fibroblasts, MG-63 cells) (human), sequence (P09619 33-1106): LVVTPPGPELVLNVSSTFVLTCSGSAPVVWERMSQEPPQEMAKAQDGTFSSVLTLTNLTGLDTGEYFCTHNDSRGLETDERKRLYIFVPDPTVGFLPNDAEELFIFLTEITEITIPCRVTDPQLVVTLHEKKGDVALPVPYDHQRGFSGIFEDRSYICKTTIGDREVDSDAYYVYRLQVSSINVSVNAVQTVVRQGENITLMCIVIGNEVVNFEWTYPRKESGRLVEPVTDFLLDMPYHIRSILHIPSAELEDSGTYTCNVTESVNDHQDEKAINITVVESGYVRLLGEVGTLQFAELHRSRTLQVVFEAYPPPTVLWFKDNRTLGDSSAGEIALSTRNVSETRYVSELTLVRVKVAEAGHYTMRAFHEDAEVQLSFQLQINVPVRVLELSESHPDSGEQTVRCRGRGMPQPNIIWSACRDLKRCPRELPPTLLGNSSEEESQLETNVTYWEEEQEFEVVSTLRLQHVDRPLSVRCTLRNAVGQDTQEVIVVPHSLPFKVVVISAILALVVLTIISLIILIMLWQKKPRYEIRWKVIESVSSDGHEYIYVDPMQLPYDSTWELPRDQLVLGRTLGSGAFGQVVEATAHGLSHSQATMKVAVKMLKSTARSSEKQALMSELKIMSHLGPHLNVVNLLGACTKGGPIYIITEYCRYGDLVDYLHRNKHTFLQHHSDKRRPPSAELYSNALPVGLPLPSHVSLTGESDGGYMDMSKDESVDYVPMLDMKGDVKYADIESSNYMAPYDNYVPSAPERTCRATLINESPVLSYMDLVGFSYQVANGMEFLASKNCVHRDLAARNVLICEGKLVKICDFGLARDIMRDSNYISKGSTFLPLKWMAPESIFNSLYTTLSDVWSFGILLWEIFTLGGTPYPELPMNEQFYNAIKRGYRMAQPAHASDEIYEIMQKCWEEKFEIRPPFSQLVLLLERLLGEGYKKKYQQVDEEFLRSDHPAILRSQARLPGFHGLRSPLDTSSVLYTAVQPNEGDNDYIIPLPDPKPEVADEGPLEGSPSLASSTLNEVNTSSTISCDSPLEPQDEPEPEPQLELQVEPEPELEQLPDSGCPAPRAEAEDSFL

[4] = target: human beta PDGF receptor on human cells that carry both receptors (CCD1070 fibroblasts, MG-63 cells) (human) (UniProt P09619); test: two-site ELISA for alpha-beta PDGF receptor heterodimers: capture with anti-beta PDGF receptor mAb, detection with polyclonal anti-alpha PDGF receptor; MG-63 lysates after PDGF DD 100 ng/mL, 10 min
PDGF AA (human) = PDGF AA (human) (UniProt P04085); test: cell-based or functional assay
[5] = target: PDGF DD p35 (p35 form of the 30664188 gene product, dimeric C-terminal fragment) (human); test: cell-based or functional assay

alpha PDGF receptor on 32D cells expressing only the alpha receptor, sequence (P16234 24-1089): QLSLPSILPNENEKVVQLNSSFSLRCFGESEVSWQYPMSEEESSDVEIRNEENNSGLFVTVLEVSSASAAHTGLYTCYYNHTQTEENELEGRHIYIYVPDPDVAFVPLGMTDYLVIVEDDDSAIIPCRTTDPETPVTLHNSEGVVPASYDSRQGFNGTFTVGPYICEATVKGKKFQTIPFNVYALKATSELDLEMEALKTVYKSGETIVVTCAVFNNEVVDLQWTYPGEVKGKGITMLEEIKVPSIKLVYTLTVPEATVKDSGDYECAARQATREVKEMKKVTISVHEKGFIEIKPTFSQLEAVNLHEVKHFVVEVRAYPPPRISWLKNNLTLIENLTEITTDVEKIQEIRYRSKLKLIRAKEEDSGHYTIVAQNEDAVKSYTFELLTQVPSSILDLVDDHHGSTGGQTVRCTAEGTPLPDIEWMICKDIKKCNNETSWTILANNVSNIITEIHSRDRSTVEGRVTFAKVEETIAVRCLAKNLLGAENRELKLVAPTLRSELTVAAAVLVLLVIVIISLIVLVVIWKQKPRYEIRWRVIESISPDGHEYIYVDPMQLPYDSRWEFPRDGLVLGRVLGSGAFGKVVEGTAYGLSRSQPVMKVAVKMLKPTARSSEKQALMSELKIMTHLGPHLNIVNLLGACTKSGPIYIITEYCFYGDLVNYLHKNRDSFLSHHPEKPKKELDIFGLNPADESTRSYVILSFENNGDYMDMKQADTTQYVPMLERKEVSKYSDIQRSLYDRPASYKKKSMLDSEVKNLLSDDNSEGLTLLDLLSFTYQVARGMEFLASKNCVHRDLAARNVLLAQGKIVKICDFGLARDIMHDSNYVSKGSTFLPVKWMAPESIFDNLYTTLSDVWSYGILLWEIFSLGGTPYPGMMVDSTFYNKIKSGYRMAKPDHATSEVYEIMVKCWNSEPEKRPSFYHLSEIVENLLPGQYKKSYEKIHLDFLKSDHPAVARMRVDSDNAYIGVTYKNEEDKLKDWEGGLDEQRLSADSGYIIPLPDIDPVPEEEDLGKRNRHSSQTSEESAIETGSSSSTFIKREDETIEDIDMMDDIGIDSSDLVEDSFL
beta PDGF receptor on HR5βR cells expressing only the beta receptor, sequence (P09619 33-1106 limits assumed): as the sequence (P09619 33-1106) above

- lowest concentration at which beta PDGF receptor phosphorylation was detected, HR5 cells [1]: 10 ng/mL
- highest competitor concentration tested, no competition seen [2]: > 250 nM
Substance: PDGF DD p35 (p35 form of the 30664188 gene product, dimeric C-terminal fragment) (ligand)

- Increase mODmin^-1 (650) (mODmin^-1 (650)) [3]: 2.3
- Increase mODmin^-1 (650) (mODmin^-1 (650)) [4]: 12.5
Substance: human alpha PDGF receptor on human cells that carry both receptors (CCD1070 fibroblasts, MG-63 cells) (from UniProt P16234 24-1089)

- BrdU incorporation OD-blank, CCD1070 cells, AA + betaR Fc (AA alone 0.2705; + MOPC21 0.227) (PDGF AA (human)): 0.248 OD-blank
- BrdU incorporation OD-blank, NIH/3T3 cells, AA + betaR Fc (AA alone 0.931; + MOPC21 0.992) (PDGF AA (human)): 0.942 OD-blank
- BrdU incorporation OD-blank, CCD1070 cells, 3066 + betaR Fc (3066 alone 0.501; + MOPC21 0.456; starve 0.0303) [5]: 0.324 OD-blank
- BrdU incorporation OD-blank, NIH/3T3 cells, 3066 + betaR Fc (3066 alone 0.902; + MOPC21 0.892; starve 0.0055) [5]: 0.0365 OD-blank
Substance: soluble beta PDGF receptor-IgFc fusion (R&D Systems) (from UniProt P09619 33-530)
